Experiment in all cases: fluorescence anisotropy
A general note: Fluorescence polarisation rises when a labelled molecule tumbles more slowly, as on binding a larger partner.

One data set addresses T1, A3F CTD (UniProt Q8IUX4).
T1 sequence: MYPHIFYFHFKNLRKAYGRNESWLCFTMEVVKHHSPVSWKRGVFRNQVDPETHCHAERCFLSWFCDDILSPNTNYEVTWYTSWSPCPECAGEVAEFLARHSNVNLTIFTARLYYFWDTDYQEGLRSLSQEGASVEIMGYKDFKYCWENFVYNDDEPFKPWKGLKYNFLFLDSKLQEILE
To be noted: RT buffer: 50 mM Tris pH 7.4, 40 mM KCl, 10 mM MgCl2, 1 mM DTT; 10 nM F-labeled DNA; 21 C.

A further data set has as its target T2, A3F (UniProt Q8IUX4).
T2 sequence: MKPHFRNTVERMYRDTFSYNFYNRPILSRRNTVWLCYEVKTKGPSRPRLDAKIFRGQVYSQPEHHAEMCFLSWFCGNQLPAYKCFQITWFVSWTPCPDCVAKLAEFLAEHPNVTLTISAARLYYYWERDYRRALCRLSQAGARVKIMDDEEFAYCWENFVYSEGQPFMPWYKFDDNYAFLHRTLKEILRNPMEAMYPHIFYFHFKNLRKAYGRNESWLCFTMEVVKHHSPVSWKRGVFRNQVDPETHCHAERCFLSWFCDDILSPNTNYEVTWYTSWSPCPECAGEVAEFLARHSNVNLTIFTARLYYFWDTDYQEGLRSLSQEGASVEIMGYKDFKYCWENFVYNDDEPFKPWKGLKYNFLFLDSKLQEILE
The settings on record: apparent Kd; 10 mM Mg2+; RT buffer: 50 mM Tris pH 7.4, 40 mM KCl, 10 mM MgCl2, 1 mM DTT; 10 nM F-labeled DNA; 21 C.

A further data set addresses T3, A3F NGM P191G (UniProt Q8IUX4).
T3 sequence: T2 sequence with P191G
To be noted: RT buffer: 50 mM Tris pH 7.4, 40 mM KCl, 10 mM MgCl2, 1 mM DTT; 10 nM F-labeled DNA; 21 C.

The target in a further data set is T4, GST-A3F (UniProt Q8IUX4).
T4 sequence: T2 sequence
The settings on record: RT buffer: 50 mM Tris pH 7.4, 40 mM KCl, 10 mM MgCl2, 1 mM DTT; 10 nM F-labeled DNA; 21 C.

Substitutions are numbered along the chain they refer to.

In the case of “GAATATAGTTTTTAGTTCAAAGTAAGTGAAGATAATTTAGAGAGTTGTAATGTGATATATGTGTATGAAAGATATAAGATTCAAAGAGTAAAGTTGTTAATGTGTGTAGATATGTTAA [A3F - 63 (TTC) (118 nt)]”, the Kd with A3F CTD is 288 nM; with A3F it was 20 nM; with A3F NGM P191G, 119 nM; with GST-A3F it was 46 nM.
